Measured values reported in US20150011567.
Changes are numbered by the printed parent chain. Names and notes keep the numbering of the source.

What was measured:
[1] = target: T1, biotinylated H4-derived unphosphorylated peptide TVTAMDVVYALKRQGRT
T1 chain: TVTAMDVVYALKRQGRT

[2] = target: purified human H3 recombinant protein (NEB), P20929
[3] = target: purified human H4 recombinant protein (NEB), P62805

B1: purified Ack1 (protein)
chain: MQPEEGTGWLLELLSEVQLQQYFLRLRDDLNVTRLSHFEYVKNEDLEKIGMGRPGQRRLWEAVKRRKALCKRKSWMSKVFSGKRLEAEFPPHHSQSTFRKTSPAPGGPAGEGPLQSLTCLIGEKDLRLLEKLGDGSFGVVRRGEWDAPSGKTVSVAVKCLKPDVLSQPEAMDDFIREVNAMHSLDHRNLIRLYGVVLTPPMKMVTELAPLGSLLDRLRKHQGHFLLGTLSRYAVQVAEGMGYLESKRFIHRDLAARNLLLATRDLVKIGDFGLMRALPQNDDHYVMQEHRKVPFAWCAPESLKTRTFSHASDTWMFGVTLWEMFTYGQEPWIGLNGSQILHKIDKEGERLPRPEDCPQDIYNVMVQCWAHKPEDRPTFVALRDFLLEAQPTDMRALQDFEEPDKLHIQMNDVITVIEGRAENYWWRGQNTRTLCVGPFPRNVVTSVAGLSAQDISQPLQNSFIHTGHGDSDPRHCWGFPDRIDELYLGNPMDPPDLLSVELSTSRPPQHLGGVKKPTYDPVSEDQDPLSSDFKRLGLRKPGLPRGLWLAKPSARVPGTKASRGSGAEVTLIDFGEEPVVPALRPCAPSLAQLAMDACSLLDETPPQSPTRALPRPLHPTPVVDWDARPLPPPPAYDDVAQDEDDFEICSINSTLVGAGVPAGPSQGQTNYAFVPEQARPPPPLEDNLFLPPQGGGKPPSSAQTAEIFQALQQECMRQLQAPAGSPAPSPSPGGDDKPQVPPRVPIPPRPTRPHVQLSPAPPGEEETSQWPGPASPPRVPPREPLSPQGSRTPSPLVPPGSSPLPPRLSSSPGKTMPTTQSFASDPKYATPQVIQAPGPRAGPCILPIVRDGKKVSSTHYYLLPERPSYLERYQRFLREAQSPEEPTPLPVPLLLPPPSTPAPAAPTATVRPMPQAALDPKANFSTNNSNPGARPPPPRATARLPQRGCPGDGPEAGRPADKIQMAMVHGVTTEECQAALQCHGWSVQRAAQYLKVEQLFGLGLRPRGECHKVLEMFDWNLEQAGCHLLGSWGPAHHKR
in vitro kinase assay on plate-bound peptide, ELISA with pY88-H4 antibodies [1]: Incubation of H4 peptide with WEE1 and Ack1 protein resulted in robust H4 Tyr88-phosphorylation | in vitro kinase reaction, immunoblot with pTyr99-H3 antibody [2]: Ack1 directly phosphorylates histone H3 at Tyr99

B2: purified constitutively active E346K-Ack1 (protein)
chain: B1 chain with E346K
in vitro kinase assay, immunoblot with pTyr51-H4 antibody [3]: When purified E346K-Ack1 and H4 were incubated, H4 was Tyr51-phosphorylated
